The DeepSol protein solubility set

Assay: soluble on expression in E. coli; label from the status in PepcDB or PDB records
In the case of “MSKKLTTAAGCPVAHNQNVQTAGKRGPQLLQDVWFLEKLAHFDREVIPERRMHAKGSGAYGTFTVTHDITKYTKAKIFSDIGKKTDMFARFSTVAGERGAADAERDIRGFSLKFYTEEGNWDLAGNNTPVFFLRDPLKFPDLNHAVKRDPRTNMRSAKNNWDFWTSLPEALHQVTIVMSDRGIPATYRHMHGFGSHTFSFINSDNERYWVKFHFVSQQGIKNLSDAEAGELVGNDRESHQRDLLDSIDNQDFPKWTLKVQIMPEADAATVPYNPFDLTKVWPHKDYPLIEVGEFELNRNPQNYFAEVEQAAFNPANVVPGISFSPDKMLQGRLFAYGDAQRYRLGVNHQHIPVNAPRCPVHSYHRDGAMRVDGNFGSTLGYEPNDQGQWAEQPDFSEPPLNLDGAAAHWDHREDEDYFSQPGDLFGLMTAEKQAILFDNTARNLNGVPKEIQLRHVTHCYKADPAYGEGIGKLLGFDISEYNS”, the “soluble on expression in E. coli” value is reported as “soluble”. For “MSKLCKEFSLSATVKNMSRFVDGEEYYTDTEERFNIPWRMFIRKDSGYFDLGLVCEKDSWENREWSIETDYKMKFVSHNGDSLTDSEHFTFENSNKSDVCLMKPWDLLESDYVVDDSIVVEAYVKIIKMTDTPCDEDENIETFLLSNTVKNISSIEEGDDYYTEIATRHNVPWRMQIKRNNGFFELYLRCEKEEQPEWGWKIELDYDLRLVSLNGQSLSLTDSGSFSKPFCEGFEKFMRWNIMEENYIVKDSIIIEARGKITKMIGCDDDSSSDDGEDESSKSHSESDTSSDNLEDEFSECVINVGGQN”, the “soluble on expression in E. coli” value was “not soluble”. With “MSKPTLAVALIVKNEARHLDECLQTVHDWVDEIVVLDSGSHDETEQVARRYTEKFYVNAKWPGFGLQRQLAQSYVQSDYVLWLDADERVTPELKQSILQAVAANKPDTLYQFARLSWVFGRFIRHSGWYPDRVLRLYPTQLTRYNDALVHEKVHVEPSMKVETLAGDAIHYTYNDVHHYLVKSAGYAKAWADQRQAKGKKASLSQGIVHAVGCFLKMYLLKRGFLDGKQGFLIALLSAHSTFVKYADLWARDNDEHYKR” the “soluble on expression in E. coli” value was “not soluble”. With “MSKPWLFTVHGTGQPDPLGPGLPADTARDVLDIYRWQPIGNYPAAAFPMWPSVEKGVAELILQIELKLDADPYADFAMAGYSQGAIVVGQVLKHHILPPTGRLHRFLHRLKKVIFWGNPMRQKGFAHSDEWIHPVAAPDTLGILEDRLENLEQYGFEVRDYAHDGDMYASIKEDDLHEYEVAIGRIVMKASGFIGGRDSVVAQLIELGQRPITEGIALAGAIIDALTFFARSRMGDKWPHLYNRYPAVEFLRQI” the “soluble on expression in E. coli” value was “soluble”. For “MSKQELDAALKKAKELASSAPVVVFSKTYCGYCNRVKQLLTQVGASYKVVELDELSDGSQLQSALAHWTGRGTVPNVFIGGKQIGGCDTVVEKHQRNELLPLLQDAAATAKTSAQL”, the “soluble on expression in E. coli” value was “soluble”. With “MSKQPMTPFEAIGGEQCIAILVDTFYSYVSKHPDLSPIFPEDLTETARKQKQFLTQYLGGPNLYTEEHGHPMLRARHLPFEITPKRAEAWLSCMEQAMDDTGVHGHIREFVFERLALTAQHMVNTPNETGEV” the “soluble on expression in E. coli” value was “not soluble”. In the case of “MSKRDYYETLGVSQDASEKEVKKAYKKLAMKYHPDRTQGDKSKEETFKEVKEAYEILNDDQKRAAYDQYGHAAFEQGGNGGGGGGHGGGFGQDFGDIFGDIFGGGGGGRGRQRQQRGSDLRYNVDLSLEDAVKGKSLEIKVPTYVSCEPCDGSGAKKGTSAKTCSTCHGHGQVQMRQGLFAVQQTCPTCSGKGKVIADKCTSCRGQGRVEKTKTLSVKIPAGVDTGDRIRLSGEGEAGEHGAPAGDLYVQVNVRDHEIFVRDENHLYCEVPISFVTAALGGDIEVPTLGGKVKLKVPKETQTGKMFRLRGKGVKSVRSSTTGDLMCKVVIETPVNLSGDQADLLRQLEEKMASSSKKHSPKETGFFDGVKKFFDDLKS”, the “soluble on expression in E. coli” value is reported as “not soluble”. With “MSKRLPPLNALRVFDAAARHLSFTRAAEELFVTQAAVSHQIKSLEDFLGLKLFRRRNRSLLLTEEGQSYFLDIKEIFSQLTEATRKLQARSAKGALTVSLLPSFAIHWLVPRLSSFNSAYPGIDVRIQAVDRQEDKLADDVDVAIFYGRGNWPGLRVEKLYAEYLLPVCSPLLLTGEKPLKTPEDLAKHTLLHDASRRDWQTYTRQLGLNHINVQQGPIFSHSAMVLQAAIHGQGVALANNVMAQSEIEAGRLVCPFNDVLVSKNAFYLVCHDSQAELGKIAAFRQWILAKAAAEQEKFRFRYEQ” the “soluble on expression in E. coli” value was “soluble”. In the case of “MSKSYNQRQRKKLHLAEFQELGFLVNFQFAEGTAIETVDETVDRFINEVIQPNGLAYEGSGYLHWEGLVCLEKIGKCDESHRETVKKWLETNGLQQIEVSELFDIWW”, the “soluble on expression in E. coli” value is reported as “not soluble”. With “MSLACGEFSLIARYFDRVRSSRLDVETGIGDDCALLNIPEKQTLAISTDTLVAGNHFLPDIDPADLAYKALAVNLSDLAAMGADPAWLTLALTLPEVDEPWLEAFSDSLFALLNYYDMQLIGGDTTRGPLSMTLGIHGYIPAGRALKRSGAKPGDWIYVTGTPGDSAAGLAVLQNRLQVSEETDAHYLIQRHLRPTPRILHGQALRDIASAAIDLSDGLISDLGHIVKASGCGARVDVDALPKSDAMMRHVDDGQALRWALSGGEDYELCFTVPELNRGALDVAIGQLGVPFTCIGQMSADIEGLNFVRDGMPVTFDWKGYDHFATPEGGSHHHHHH” the “soluble on expression in E. coli” value was “soluble”. For “MSLADDHIYVTSSGGSFLENVRKHMAEPFEKQSGVKVTLVPGTNPAHALKILSSRGTPPYDVAAFGGNDMYRLIRAKKLAQVDEKSVPSLADVPEKFKADWEGCGSLYDYSSVGIAYRPDKIQGGVKSWKEFVERTVAGEFGKQVFFNNLSSNVRGAEVLSMFGKIYGSGYGDIEASIATLERMKPHIFKFFTAFNDPVVLLTSGEGAIGPGWDGRTFIAEDSTKGMVKWVDPTEGAVSSGPVMAVVKGGKEDLAKAFMNYALGEEAQKAFCEAMYYGAVNRKVQYSEKLKHRLPSIDSVQLVDTALLIKNMSALLDLWNKRIASEGHHHHHH”, the “soluble on expression in E. coli” value was “soluble”. For “MSLADKAFHTRLINMRRDLHEHPELSFQEVETTKKIRRWLEEEQIEILDVPQLKTGVIAEIKGREDGPVIAIRADIDALPIQEQTNLPFASKVDGTMHACGHDFHTASIIGTAMLLNQRRAELKGTVRFIFQPAEEIAAGARKVLEAGVLNGVSAIFGMHNKPDLPVGTIGVKEGPLMASVDRFEIVIKGKGGHAGIPNNSIDPIAAAGQIISGLQSVVSRNISSLQNAVVSITRVQAGTSWNVIPDQAEMEGTVRTFQKEARQAVPEHMRRVAEGIAAGYGAQAEFKWFPYLPSVQNDGTFLNAASEAAARLGYQTVHAEQSPGGEDFALYQEKIPGFFVWMGTNGTEEWHHPAFTLDEEALTVASQYFAELAVIVLETIKEGGSHHHHHH”, the “soluble on expression in E. coli” value was “soluble”. With “MSLADSTELTTSATLGAQDAMAFGISEDPAFFQILSANLYSNQKLAMVRETLCNSWDAHIEGNKTDIPIHVTIDKDGFLIFRDYGSGIPKDKIQEVYGVYGASTKKANTASTGGFGLGCKSPMAYTDSFTVTSMCDGTKTVYHIAKSSVETNGKPGIIPIVSVPTEESGLEVKIQLQSEDILEIDSYIRAIVLHGEIKCIYCNQYTGPNTVELLPVLGMSFEPGSYNLDHSTWHKYYMGGHSIFIRYGNVMYPALDTPATHEALKLVKQFMQVINCSRIVVQAAPSSLAVAPSRETLSSQKMTEDGIVNLAVALVDKMEADIKARLPNAIEYIGKAIKEYSPHRFEVNSYLPYTNLVPDVIVSRYMSSTLFSKQYAHLCKKWGNMEIDRQLEHPALAHFSGEGHHHHHH” the “soluble on expression in E. coli” value was “soluble”. For “MSLADVDTGTLTIKGNIAESPCKFEAGGDSVSINMPTVPTSVFEGKAKYSTYDDAVGVTSSMLKISCPKEVAGVKLSLITNDKITGNDKAIASSNDTVGYYLYLGDNSDVLDVSAPFNIESYKTAEGQYAIPFKAKYLKLTDNSVQSGDVLSSLVMRVAQDEGHHHHHH”, the “soluble on expression in E. coli” value was “soluble”. In the case of “MSLAEKKERIRFMTVDDVDAVVRVEEQTFTVPWSREAFINEVTNNQFARYVVYEVGEQIVGYCGVWVVYDESHITNIAIHPDYRGEKRGEALLRYILEFARLLGAKKLSLEVRISNEIAQRLYRKFGFQAGGIRKNYYTDNQEDALVMWVMLSEGHHHHHH”, the “soluble on expression in E. coli” value is reported as “soluble”. For “MSLAESQLSKLDVNLQSLNPYTFSKTRCIVNLHISDDTKNRDPSTTNGSYSNSQLLSNGEHVCYHFSQDYCVLSIYPVTDAITGKTVVVHLPHETFNDHHTFTMAEEDGCIVMDLILKTGLFLTLRFSLEYLFNRNADINSSWYSLLKPYDFTVRLPDYLYKVNSALSIVYLNDGGLLGLQKTQTSGSDEYDLHPVLFNDNSYFQSFTRFFSHNDSGRENVVSSVSYGDYHLLTLTENCKLRIWDLRTNSVTAQLNLITDPQDKHRKYESIGPYLALLDSVLVVFLPFGNGAFRTFQLSVNNSGGLVLTPRGELIRTNLSTASIWSLVDTKLTKPFELNIETSYLQMVVLWKSNTSIKLQILNFETEALDKHSWVEASNKSLPDILDNDILGDNFEQSLLDLKAHYTPAIYEEAQRILSANGEGHHHHHH”, the “soluble on expression in E. coli” value was “not soluble”. With “MSLAGQIAIVTGASRGIGRGIALQLGEAGATVYITGRKPEESLNSKVGLSGLEATADEITKRGGKGIARFVDHQNMEEVKNFFEVVEKEHQGQLDILVNNAYQGVTAISENMGKPFYETDPYVWDTINNVGLRNHYFCTVYAARLMTARNKGLIVNVSSGGGLRYLFNVAYGVGKQALDRMSADTAVELRKKNVCVVSIWPGAVRTELVDKMFKDENGKPRPEIKNAEVFANGETVEYPGRAVVSLASDPRRMDKTGRILITEDLGKEYGFVDIDGLRPPNLRSVSFILKHLGWNTTANFVPTWVKLPGWLVWAGNSRL” the “soluble on expression in E. coli” value was “soluble”. For “MSLAIEKELLDQLLAGRDPSEVFGKDGLLDDLKKALSERILNAELDDHLDVERLEGGPANRRNGSSKKTVLTGTSKMTLTIPRDRAGTFDPKLIARYQRRFPDFDDKIISMYARGMTVREIQGHLEELYGIDVSPDLISAVTDTVLEAVGEWQNRPLELCYPLVFFDAIRVKIRDEGFVRNKAVYVALAVLADGSKEILGLWIEQTEGAKFWLRVMNELKNRGCQDILIAVVDGLKGFPEAITAVFPQTIVQTCIVHLIRHSLEFVSYKDRRTVVPALRAIYRARDAEAGLKALEAFEEGYWGQKYPAIAQSWRRNWEHVVPFFAFPEGVRRIIYTTNAIEALNSKLRRAVRSRGHFPGDEAAMKLLYLVLNNAAEQWKRAPREWVEAKTQFAVIFGERFFNEGHHHHHH”, the “soluble on expression in E. coli” value was “soluble”. In the case of “MSLAKQPIDLLIQPKWRIIDQSSLGPYFDAKQSFAIDDTLCASVGKGLSPATARSWVHHDTIVLGIQDTRLPYLQEGISLLEEAGYQAIVRNSGGLAVVLDSGVLNVSLIFQDKKNGIDIDRGYEAMFELVKRMLSSYDAAIEAYEIKGSYCPGSFDLSIGGRKFAGISQRRLRGGVAVQIYLCADQSGSGRAELIKRFYDTALKDMRGKTKAVYPDIRPETMASLSELLNEDISVQDLMLLLLTQLKELGGEIYQGPLTPAEEEVYEKNLVRMIERNEKVFGEGHHHHHH”, the “soluble on expression in E. coli” value is reported as “soluble”. In the case of “MSLALQEQCLWETLTPQRPDRAPLKGELTADVCIIGAGFTGLSAAVHLLEQGKRVCVVEAHRAGHGGSGRNVGLVNAGMWIPPDEIEAGFGEQVGSQLNRMLGAAPSLVFSLVDKYHIDCQLRREGTLHMAHNARGEADLRSREEQWKRRGAPVELLTGAACEAATGTRKIAAALLDRRAGTLNPMAYVSGLARAATELGGRLFDHSPVTRLERQGQRWSVQTEQGSVLAEQVVIASNAYTEGDWTELRRNFFPGYYYQVASAPLTEEAARQILPGGQGSWDTRQVLSSIRRDAEGRLLLGSLGNGSQKPLWFLKAWADRVQQHYFPYLKPVEWECTWTGCIAFTPDHLMRLFEPAPGLVAVTGYNGRGVTTGTVVGKAFADYLCNGDPQALPIPFAAMQPLAGVGLRSCLYEAGFSLYHAGQCLRIVEGHHHHHH”, the “soluble on expression in E. coli” value is reported as “not soluble”.
